{"source": "patent US10130693B2", "about": "“Peptides, combination of peptides and scaffolds for use in immunotherapeutic treatment of various cancers” (Immatics Biotechnologies GmbH, priority 2015, dated 2018)", "data": [{"target": "HLA-A*02:01 (Homo sapiens, UniProt P04439, D140Y/D185E/D98H/E176V/E277Q/G131W/G231S/I119V/I121R/I166T/I218V/L300P/L318F/N151K/N90K/P208A/P217A/Q86G/Q94H/R138H/R169H/T345S)", "experiment": "MHC binding assay, UV-ligand exchange with beta2m ELISA (exchange yield), HLA-A*02", "conditions": "binding to HLA-A*02 ranged by peptide exchange yield", "source_text": "Candidate peptides for T cell based therapies according to the present invention were further tested for their MHC binding capacity (affinity). The individual peptide-MHC complexes were produced by UV-ligand exchange, where a UV-sensitive peptide is cleaved upon UV-irradiation, and exchanged with the peptide of interest as analyzed. Only peptide candidates that can effectively bind and stabilize the peptide-receptive MHC molecules prevent dissociation of the MHC complexes. To determine the yield of the exchange reaction, an ELISA was performed based on the detection of the light chain (β2m) of stabilized MHC complexes. The assay was performed as generally described in Rodenko et al. (Rodenko et al., 2006).\n96 well MAXISorp plates (NUNC) were coated over night with 2 ug/ml streptavidin in PBS at room temperature, washed 4× and blocked for 1 h at 37° C. in 2% BSA containing blocking buffer. […] Peptide-MHC monomers of the UV-exchange reaction were diluted 100 fold in blocking buffer. Samples were incubated for 1 h at 37° C., washed four times, incubated with 2 ug/ml HRP conjugated anti-β2m for 1h at 37° C., washed again and detected with TMB solution that is stopped with […]. Absorption was measured at 450 nm. Candidate peptides that show a high exchange yield (preferably higher than 50%, most preferred higher than 75%) are generally preferred for a generation and production of antibodies or fragments thereof, and/or T cell receptors or fragments thereof, as they show sufficient avidity to the MHC molecules and prevent dissociation of the MHC complexes.", "values": [{"substance": "18 (YVLNEEDLQKV; listed as Homo sapiens) [compound 18]", "Peptide exchange (MHC class I binding score)": "+++ (50%-75% = +++)"}, {"substance": "53 (SLLSHVIVA; listed as Homo sapiens) [compound 53]", "Peptide exchange (MHC class I binding score)": "+++ (50%-75% = +++)"}, {"substance": "24 (FLWNGEDSAL; listed as Homo sapiens) [compound 24]", "Peptide exchange (MHC class I binding score)": "+++ (50%-75% = +++)"}, {"substance": "88 (ILLNTEDLASL; listed as Homo sapiens) [compound 88]", "Peptide exchange (MHC class I binding score)": "+++ (50%-75% = +++)"}, {"substance": "89 (YLVAHNLLL; listed as Homo sapiens) [compound 89]", "Peptide exchange (MHC class I binding score)": "+++ (50%-75% = +++)"}, {"substance": "41 (FVLPLVVTL; listed as Homo sapiens) [compound 41]", "Peptide exchange (MHC class I binding score)": "+++ (50%-75% = +++)"}, {"substance": "37 (ALINDILGELVKL; listed as Homo sapiens) [compound 37]", "Peptide exchange (MHC class I binding score)": "+++ (50%-75% = +++)"}, {"substance": "76 (ILLDESNFNHFL; listed as Homo sapiens) [compound 76]", "Peptide exchange (MHC class I binding score)": "+++ (50%-75% = +++)"}, {"substance": "325 (RLLPKVQEV; listed as Homo sapiens) [compound 325]", "Peptide exchange (MHC class I binding score)": "++ (20%-49% = ++)"}, {"substance": "93 (SLLTQPIFL; listed as Homo sapiens) [compound 93]", "Peptide exchange (MHC class I binding score)": "+++ (50%-75% = +++)"}, {"substance": "339 (VLGPGPPPL; listed as Homo sapiens) [compound 339]", "Peptide exchange (MHC class I binding score)": "++ (20%-49% = ++)"}, {"substance": "38 (KMQEDLVTL; listed as Homo sapiens) [compound 38]", "Peptide exchange (MHC class I binding score)": "+++ (50%-75% = +++)"}, {"substance": "57 (VLISSTVRL; listed as Homo sapiens) [compound 57]", "Peptide exchange (MHC class I binding score)": "++ (20%-49% = ++)"}, {"substance": "333 (GTFLEGVAK; listed as Homo sapiens) [compound 333]", "Peptide exchange (MHC class I binding score)": "+++ (50%-75% = +++)"}, {"substance": "36 (KLYGIEIEV; listed as Homo sapiens) [compound 36]", "Peptide exchange (MHC class I binding score)": "++++ (>=75% = ++++)"}, {"substance": "328 (SVDSAPAAV; listed as Homo sapiens) [compound 328]", "Peptide exchange (MHC class I binding score)": "++ (20%-49% = ++)"}, {"substance": "27 (KVFGDLDQV; listed as Homo sapiens) [compound 27]", "Peptide exchange (MHC class I binding score)": "+++ (50%-75% = +++)"}, {"substance": "77 (IVLSTIASV; listed as Homo sapiens) [compound 77]", "Peptide exchange (MHC class I binding score)": "+++ (50%-75% = +++)"}, {"substance": "31 (ALSDETKNNWEV; listed as Homo sapiens) [compound 31]", "Peptide exchange (MHC class I binding score)": "++++ (>=75% = ++++)"}, {"substance": "59 (ALTKILAEL; listed as Homo sapiens) [compound 59]", "Peptide exchange (MHC class I binding score)": "+++ (50%-75% = +++)"}, {"substance": "69 (GIYDGILHSI; listed as Homo sapiens) [compound 69]", "Peptide exchange (MHC class I binding score)": "+++ (50%-75% = +++)"}, {"substance": "33 (LLLPLLPPLSPSLG; listed as Homo sapiens) [compound 33]", "Peptide exchange (MHC class I binding score)": "+++ (50%-75% = +++)"}, {"substance": "326 (SLLPLVWKI; listed as Homo sapiens) [compound 326]", "Peptide exchange (MHC class I binding score)": "+++ (50%-75% = +++)"}, {"substance": "338 (LLYDGKLSSA; listed as Homo sapiens) [compound 338]", "Peptide exchange (MHC class I binding score)": "++ (20%-49% = ++)"}, {"substance": "19 (TLLPTVLTL; listed as Homo sapiens) [compound 19]", "Peptide exchange (MHC class I binding score)": "+++ (50%-75% = +++)"}, {"substance": "1 (PLWGKVFYL; listed as Homo sapiens) [compound 1]", "Peptide exchange (MHC class I binding score)": "++ (20%-49% = ++)"}, {"substance": "50 (EYALLYHTL; listed as Homo sapiens) [compound 50]", "Peptide exchange (MHC class I binding score)": "++ (20%-49% = ++)"}, {"substance": "63 (TLSSERDFAL; listed as Homo sapiens) [compound 63]", "Peptide exchange (MHC class I binding score)": "+ (<20% = +)"}, {"substance": "92 (LLRGPPVARA; listed as Homo sapiens) [compound 92]", "Peptide exchange (MHC class I binding score)": "++ (20%-49% = ++)"}, {"substance": "82 (VLLRVLIL; listed as Homo sapiens) [compound 82]", "Peptide exchange (MHC class I binding score)": "++ (20%-49% = ++)"}, {"substance": "78 (LLWGHPRVA; listed as Homo sapiens) [compound 78]", "Peptide exchange (MHC class I binding score)": "+++ (50%-75% = +++)"}, {"substance": "13 (VLRDNIQGI; listed as Homo sapiens) [compound 13]", "Peptide exchange (MHC class I binding score)": "+++ (50%-75% = +++)"}]}, {"tested_on": "HLA-A*24", "experiment": "MHC binding assay, UV-ligand exchange with beta2m ELISA (exchange yield), HLA-A*24", "parameters": "species or system human", "conditions": "binding to HLA-A*24, UV-ligand exchange", "summary_of_the_method": "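Peptide–MHC complexes formed by UV-ligand exchange: a UV-cleavable peptide is replaced by the test peptide, and only binders keep the complex stable. Exchange yield read by streptavidin-capture ELISA on reactions diluted 100-fold, detected with HRP anti-β2m (2 ug/ml, 1 h, 37° C) and TMB at 450 nm.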", "values": [{"substance": "231 (AFADVSVKF; listed as Homo sapiens) [compound 231]", "Peptide exchange (MHC class I binding score, peptide exchange yield)": "++++ (>=75% = ++++)"}, {"substance": "207 (LYSDAFKFIVF; listed as Homo sapiens) [compound 207]", "Peptide exchange (MHC class I binding score, peptide exchange yield)": "+++ (50%-75% = +++)"}, {"substance": "269 (QYPYLQAFF; listed as Homo sapiens) [compound 269]", "Peptide exchange (MHC class I binding score, peptide exchange yield)": "+++ (50%-75% = +++)"}, {"substance": "263 (RYILENHDF; listed as Homo sapiens) [compound 263]", "Peptide exchange (MHC class I binding score, peptide exchange yield)": "+++ (50%-75% = +++)"}, {"substance": "187 (AYAANVHYL; listed as Homo sapiens) [compound 187]", "Peptide exchange (MHC class I binding score, peptide exchange yield)": "++++ (>=75% = ++++)"}, {"substance": "259 (YFIKSPPSQLF; listed as Homo sapiens) [compound 259]", "Peptide exchange (MHC class I binding score, peptide exchange yield)": "++ (20%-49% = ++)"}, {"substance": "302 (LYLPVHYGF; listed as Homo sapiens) [compound 302]", "Peptide exchange (MHC class I binding score, peptide exchange yield)": "+++ (50%-75% = +++)"}, {"substance": "273 (IYGEKLQFIF; listed as Homo sapiens) [compound 273]", "Peptide exchange (MHC class I binding score, peptide exchange yield)": "+++ (50%-75% = +++)"}, {"substance": "209 (AFIETPIPLF; listed as Homo sapiens) [compound 209]", "Peptide exchange (MHC class I binding score, peptide exchange yield)": "++++ (>=75% = ++++)"}, {"substance": "194 (VYQSLSNSL; listed as Homo sapiens) [compound 194]", "Peptide exchange (MHC class I binding score, peptide exchange yield)": "+++ (50%-75% = +++)"}, {"substance": "208 (TYLEKIDGF; listed as Homo sapiens) [compound 208]", "Peptide exchange (MHC class I binding score, peptide exchange yield)": "++++ (>=75% = ++++)"}, {"substance": "310 (IYAPTLLVF; listed as Homo sapiens) [compound 310]", "Peptide exchange (MHC class I binding score, peptide exchange yield)": "+++ (50%-75% = +++)"}, {"substance": "316 (VYFEGSDFKF; listed as Homo sapiens) [compound 316]", "Peptide exchange (MHC class I binding score, peptide exchange yield)": "+++ (50%-75% = +++)"}, {"substance": "225 (TYTNTLERL; listed as Homo sapiens) [compound 225]", "Peptide exchange (MHC class I binding score, peptide exchange yield)": "+++ (50%-75% = +++)"}, {"substance": "146 (NYYERIHAL; listed as Homo sapiens) [compound 146]", "Peptide exchange (MHC class I binding score, peptide exchange yield)": "+++ (50%-75% = +++)"}, {"substance": "206 (NYLDVATFL; listed as Homo sapiens) [compound 206]", "Peptide exchange (MHC class I binding score, peptide exchange yield)": "++++ (>=75% = ++++)"}, {"substance": "188 (GYKTFFNEF; listed as Homo sapiens) [compound 188]", "Peptide exchange (MHC class I binding score, peptide exchange yield)": "+++ (50%-75% = +++)"}, {"substance": "382 (AYLPPLQQVF; listed as Homo sapiens) [compound 382]", "Peptide exchange (MHC class I binding score, peptide exchange yield)": "+++ (50%-75% = +++)"}, {"substance": "288 (VYPDTVALTF; listed as Homo sapiens) [compound 288]", "Peptide exchange (MHC class I binding score, peptide exchange yield)": "++ (20%-49% = ++)"}, {"substance": "226 (MYLKLVQLF; listed as Homo sapiens) [compound 226]", "Peptide exchange (MHC class I binding score, peptide exchange yield)": "++ (20%-49% = ++)"}, {"substance": "219 (SYLKAVFNL; listed as Homo sapiens) [compound 219]", "Peptide exchange (MHC class I binding score, peptide exchange yield)": "+++ (50%-75% = +++)"}, {"substance": "143 (KYIFQLNEI; listed as Homo sapiens) [compound 143]", "Peptide exchange (MHC class I binding score, peptide exchange yield)": "+++ (50%-75% = +++)"}, {"substance": "242 (VYGEPRELL; listed as Homo sapiens) [compound 242]", "Peptide exchange (MHC class I binding score, peptide exchange yield)": "+++ (50%-75% = +++)"}, {"substance": "159 (IYEETRGVL; listed as Homo sapiens) [compound 159]", "Peptide exchange (MHC class I binding score, peptide exchange yield)": "+++ (50%-75% = +++)"}]}]}
